Test results reported in IntAct's records for PubMed 15350218.

What was measured:
syt2_rat Syt2 [1] = biological target: syt2_rat Syt2 (UniProt P29101)
syt2_rat Syt2 [2] = biological target: syt2_rat Syt2 (UniProt P29101); remark: listed apart in the source

syt2_rat Syt2, sequence (P29101 whole entry): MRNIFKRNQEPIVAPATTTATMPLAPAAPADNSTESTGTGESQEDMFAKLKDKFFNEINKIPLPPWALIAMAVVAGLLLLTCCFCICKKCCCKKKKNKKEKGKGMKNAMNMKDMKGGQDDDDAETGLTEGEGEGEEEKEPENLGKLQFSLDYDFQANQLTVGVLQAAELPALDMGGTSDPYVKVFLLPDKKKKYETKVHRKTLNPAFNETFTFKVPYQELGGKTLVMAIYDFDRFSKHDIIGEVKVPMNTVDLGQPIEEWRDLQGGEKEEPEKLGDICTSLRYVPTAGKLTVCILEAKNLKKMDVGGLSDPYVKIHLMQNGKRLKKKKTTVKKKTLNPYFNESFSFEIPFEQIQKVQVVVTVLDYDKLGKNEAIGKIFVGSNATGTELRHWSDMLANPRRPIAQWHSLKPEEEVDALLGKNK

Row | effect of a mutation on the interaction (syt2_rat Syt2 [1]) | effect of a mutation on the interaction (syt2_rat Syt2 [2]) | Substance
1 | decreasing interaction | – | Serine/threonine-protein kinase WNK1 (Rattus norvegicus (Rat)), Q9JIH7 V318D
2 | – | decreasing interaction | Serine/threonine-protein kinase WNK1 (Rattus norvegicus (Rat)), Q9JIH7 V318E
